Common to all, as to test: fluorescence polarisation
For orientation: Polarisation of emitted light reports the rotation of a fluorescent probe.

Assay [1] deals with FAM-…, N-terminally FAM-labeled Dyn A (2–13).
In assay [2] the target is FAM-GGFLRRI, N-terminally FAM-labeled Dyn A (2–8).
The target of assay [3] is FAM-…, N-terminally FAM-labeled Dyn A (2–17).

As to “rNln (Met37–Ser704) E475A, C-terminal 6xHis-tag, catalytically inactive mutant (from UniProt P42676 37-704) (enzyme)”, the Kd (as a rule, the equilibrium constant for the complex coming apart) in assay [1] is 4.69 µM; in assay [2], 23.7 µM; in assay [3], 3.26 µM.

The record behind these values is PMC11310207.
